# Earlier results in article PMC9434060 (Heliyon, 2022).
# B1: hIntL-1: Human intelectin-1, disulfide-linked trimeric lectin (protein, UniProt Q8WWA0 19-298, looked up)
# Intelectin-1: TDEANTYFKEWTCSSSPSLPRSCKEIKDECPSAFDGLYFLRTENGVIYQTFCDMTSGGGGWTLVASVHENDMRGKCTVGDRWSSQQGSKAVYPEGDGNWANYNTFGSAEAATSDDYKNPGYYDIQAKDLGIWHVPNKSPMQHWRNSSLLRYRTDTGFLQTLGHNLFGIYQKYPVKYGEGKCWTDNGPVIPVVYDFGDAQKTASYYSPYGQREFTAGFVQFRVFNNERAANALCAGMRVTGCNTEHHCIGGGGYFPEASPQQCGDFSGFDWSGYGTHVGYS
# Conditions: hIntL-1, ligand not given; ref [10]
molecule,measurement,value
B1,Kd,85 ± 14 nM
